Reference: patent US20200317768A1 (published 2020)
Changes are numbered by the printed parent chain. Names and notes keep the numbering of the source.

T1: human FcγRIIaR extracellular domain, C-terminal His-tag (human, UniProt P12318 34-217)
T1 construct: also called human FcγRIIa (type R); FcgRIIaR
T1 chain: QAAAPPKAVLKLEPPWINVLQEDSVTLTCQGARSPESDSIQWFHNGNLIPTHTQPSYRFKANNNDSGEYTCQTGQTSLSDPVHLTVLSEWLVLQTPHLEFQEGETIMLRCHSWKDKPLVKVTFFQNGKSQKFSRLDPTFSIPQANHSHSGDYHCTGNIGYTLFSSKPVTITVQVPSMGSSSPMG

T2: human FcγRIIaH extracellular domain, C-terminal His-tag (human, UniProt P12318 34-217)
T2 construct: also called human FcγRIIa (type H); FcgRIIaH
T2 sequence: T1 chain with R134H

T3: human FcγRIIaR extracellular domain, His-tagged (human, UniProt P12318 34-217)
T3 construct: also called human FcγRIIa (type R); FcgRIIaR; not shown: C-terminal His-tag
T3 chain: T1 chain

T4: cynomolgus monkey FcγRIIa2 extracellular domain, His-tagged (cynomolgus monkey)
T4 construct: also called cyno FcγRIIa2; cynoFcgRIIa2; not shown: C-terminal His-tag
T4 chain: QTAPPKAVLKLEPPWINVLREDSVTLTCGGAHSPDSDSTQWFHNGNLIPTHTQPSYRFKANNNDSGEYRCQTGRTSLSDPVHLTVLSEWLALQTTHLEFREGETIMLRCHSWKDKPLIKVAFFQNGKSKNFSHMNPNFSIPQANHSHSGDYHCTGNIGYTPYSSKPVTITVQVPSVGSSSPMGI

T5: human FcγRIIb extracellular domain, His-tagged (human, UniProt P31994 43-217)
T5 construct: also called FcgRIIb (human); not shown: C-terminal His-tag
T5 sequence: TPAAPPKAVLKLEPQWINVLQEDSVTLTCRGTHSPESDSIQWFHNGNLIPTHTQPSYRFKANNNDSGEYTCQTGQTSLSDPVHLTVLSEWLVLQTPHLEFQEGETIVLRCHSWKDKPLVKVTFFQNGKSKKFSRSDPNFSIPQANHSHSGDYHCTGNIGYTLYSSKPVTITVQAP

T6: cynomolgus monkey FcγRIIIaS extracellular domain, His-tagged (cynomolgus monkey, UniProt Q8SPW2 21-206 at identity 1.00))
T6 construct: also called cyno FcγRIIIaS; cynoFcγRIIIaS; not shown: C-terminal His-tag
T6 chain: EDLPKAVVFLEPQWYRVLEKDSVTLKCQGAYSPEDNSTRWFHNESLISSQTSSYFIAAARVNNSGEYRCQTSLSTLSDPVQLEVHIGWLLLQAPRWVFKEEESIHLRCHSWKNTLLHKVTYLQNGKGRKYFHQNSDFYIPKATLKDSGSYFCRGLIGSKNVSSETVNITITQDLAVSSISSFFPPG

T7: cynomolgus monkey FcγRIIb extracellular domain, His-tagged (cynomolgus monkey)
T7 construct: also called cyno FcγRIIb; cynoFcγRIIb; not shown: C-terminal His-tag
T7 chain: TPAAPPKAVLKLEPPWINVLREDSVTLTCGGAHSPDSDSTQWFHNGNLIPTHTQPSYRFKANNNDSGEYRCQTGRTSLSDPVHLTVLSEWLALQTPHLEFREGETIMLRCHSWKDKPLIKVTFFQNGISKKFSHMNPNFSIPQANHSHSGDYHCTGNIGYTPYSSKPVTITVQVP

T8: cynomolgus monkey FcγRIIa3 extracellular domain, His-tagged (cynomolgus monkey)
T8 construct: also called cyno FcγRIIa3; cynoFcgRIIa3; not shown: C-terminal His-tag
T8 chain: T4 chain with K127I, N130K, H133P, Q142R

T9: cynomolgus monkey FcγRIIa1 extracellular domain, His-tagged (cynomolgus monkey)
T9 construct: also called cyno FcγRIIa1; cynoFcgRIIa1; not shown: C-terminal His-tag
T9 chain: T4 chain with T95P, A121T, K127I, S128A, N130K, N135D, Q142R

T10: human FcγRIIaH extracellular domain, His-tagged (human, UniProt P12318 34-217)
T10 construct: also called human FcγRIIa (type H); FcgRIIaH; not shown: C-terminal His-tag
T10 sequence: T1 chain with R134H

B1: GpH7-B3 variant A327N/GpL16-k0 (antibody, human IgG1, kappa)
heavy: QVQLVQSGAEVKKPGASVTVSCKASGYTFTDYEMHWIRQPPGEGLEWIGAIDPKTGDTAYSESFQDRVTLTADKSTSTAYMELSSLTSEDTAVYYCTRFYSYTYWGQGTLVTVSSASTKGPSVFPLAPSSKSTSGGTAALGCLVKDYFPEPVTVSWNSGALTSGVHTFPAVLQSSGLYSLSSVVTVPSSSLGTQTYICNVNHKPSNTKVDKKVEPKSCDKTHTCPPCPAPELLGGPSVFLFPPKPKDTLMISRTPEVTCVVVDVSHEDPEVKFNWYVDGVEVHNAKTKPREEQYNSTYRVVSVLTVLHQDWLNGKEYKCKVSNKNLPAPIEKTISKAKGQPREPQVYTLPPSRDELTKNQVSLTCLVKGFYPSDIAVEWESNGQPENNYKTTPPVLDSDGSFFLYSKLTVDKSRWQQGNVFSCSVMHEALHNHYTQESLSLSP
light: DIVMTQSPLSLPVTPGEPASISCQASESLVHSNRNTYLHWYLQKPGQSPQLLIYKVSNRFSGVPDRFSGSGSGTDFTLKISRVEAEDVGVYYCSQNTHVPPTFGQGTKVEIERTVAAPSVFIFPPSDEQLKSGTASVVCLLNNFYPREAKVQWKVDNALQSGNSQESVTEQDSKDSTYSLSSTLTLSKADYEKHKVYACEVTHQGLSSPVTKSFNRGEC
B2: GpH7-B3 variant A330R/GpL16-k0 (antibody, human IgG1, kappa)
heavy: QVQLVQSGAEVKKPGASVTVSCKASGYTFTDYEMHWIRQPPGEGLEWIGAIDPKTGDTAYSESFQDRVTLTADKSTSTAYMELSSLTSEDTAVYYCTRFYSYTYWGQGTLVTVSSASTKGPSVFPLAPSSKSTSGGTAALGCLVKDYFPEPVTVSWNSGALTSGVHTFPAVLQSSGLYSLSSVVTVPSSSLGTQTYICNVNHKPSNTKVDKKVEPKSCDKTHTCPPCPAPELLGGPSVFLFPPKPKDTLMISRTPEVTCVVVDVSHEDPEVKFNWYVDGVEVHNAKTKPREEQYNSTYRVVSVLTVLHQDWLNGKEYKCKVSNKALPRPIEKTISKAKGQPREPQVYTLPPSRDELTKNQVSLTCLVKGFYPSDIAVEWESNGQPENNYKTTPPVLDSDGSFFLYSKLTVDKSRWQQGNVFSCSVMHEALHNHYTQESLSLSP
light: B1 light
B3: GpH7-B3 variant A330K/GpL16-k0 (antibody, human IgG1, kappa)
heavy: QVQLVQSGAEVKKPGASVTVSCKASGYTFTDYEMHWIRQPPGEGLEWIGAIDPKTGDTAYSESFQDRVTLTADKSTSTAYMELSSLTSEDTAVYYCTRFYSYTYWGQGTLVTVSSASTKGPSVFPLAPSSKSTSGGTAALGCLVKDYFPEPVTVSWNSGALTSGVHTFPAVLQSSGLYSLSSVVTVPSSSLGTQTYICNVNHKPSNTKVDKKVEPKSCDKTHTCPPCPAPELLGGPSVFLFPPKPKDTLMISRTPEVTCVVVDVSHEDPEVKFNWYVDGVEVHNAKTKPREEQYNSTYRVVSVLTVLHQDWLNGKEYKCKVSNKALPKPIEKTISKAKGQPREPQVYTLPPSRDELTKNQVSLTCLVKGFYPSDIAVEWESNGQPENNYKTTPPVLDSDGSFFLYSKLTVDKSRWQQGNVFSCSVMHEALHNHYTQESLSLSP
light: B1 light
B4: GpH7-B3 variant N325L/GpL16-k0 (antibody, human IgG1, kappa)
heavy: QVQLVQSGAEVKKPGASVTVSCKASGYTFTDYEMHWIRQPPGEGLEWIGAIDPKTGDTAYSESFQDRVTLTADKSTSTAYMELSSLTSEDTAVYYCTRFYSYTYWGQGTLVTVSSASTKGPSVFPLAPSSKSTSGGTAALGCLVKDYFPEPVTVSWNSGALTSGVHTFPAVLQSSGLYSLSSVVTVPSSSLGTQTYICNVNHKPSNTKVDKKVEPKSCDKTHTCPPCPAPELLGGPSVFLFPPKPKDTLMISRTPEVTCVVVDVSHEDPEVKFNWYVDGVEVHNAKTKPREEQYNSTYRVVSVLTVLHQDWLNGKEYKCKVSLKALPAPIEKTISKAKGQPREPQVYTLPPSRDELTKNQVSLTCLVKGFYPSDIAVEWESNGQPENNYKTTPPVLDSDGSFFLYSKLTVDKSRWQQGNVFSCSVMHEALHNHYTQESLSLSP
light: B1 light
B5: GpH7-B3 variant P238E/GpL16-k0 (antibody, human IgG1, kappa)
heavy: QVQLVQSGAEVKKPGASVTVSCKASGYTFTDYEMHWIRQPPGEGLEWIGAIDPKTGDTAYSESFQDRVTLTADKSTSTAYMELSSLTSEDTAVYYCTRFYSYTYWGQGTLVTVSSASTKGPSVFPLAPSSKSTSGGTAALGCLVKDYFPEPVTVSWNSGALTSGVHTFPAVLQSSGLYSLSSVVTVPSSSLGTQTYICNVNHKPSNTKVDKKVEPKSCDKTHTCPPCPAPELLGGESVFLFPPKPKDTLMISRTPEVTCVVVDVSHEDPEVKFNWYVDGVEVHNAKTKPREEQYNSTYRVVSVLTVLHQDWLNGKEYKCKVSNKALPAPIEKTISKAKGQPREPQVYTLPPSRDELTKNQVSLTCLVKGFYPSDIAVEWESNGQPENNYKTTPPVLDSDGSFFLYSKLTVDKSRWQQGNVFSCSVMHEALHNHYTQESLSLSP
light: B1 light
B6: GpH7-B3 variant P271E/GpL16-k0 (antibody, human IgG1, kappa)
heavy: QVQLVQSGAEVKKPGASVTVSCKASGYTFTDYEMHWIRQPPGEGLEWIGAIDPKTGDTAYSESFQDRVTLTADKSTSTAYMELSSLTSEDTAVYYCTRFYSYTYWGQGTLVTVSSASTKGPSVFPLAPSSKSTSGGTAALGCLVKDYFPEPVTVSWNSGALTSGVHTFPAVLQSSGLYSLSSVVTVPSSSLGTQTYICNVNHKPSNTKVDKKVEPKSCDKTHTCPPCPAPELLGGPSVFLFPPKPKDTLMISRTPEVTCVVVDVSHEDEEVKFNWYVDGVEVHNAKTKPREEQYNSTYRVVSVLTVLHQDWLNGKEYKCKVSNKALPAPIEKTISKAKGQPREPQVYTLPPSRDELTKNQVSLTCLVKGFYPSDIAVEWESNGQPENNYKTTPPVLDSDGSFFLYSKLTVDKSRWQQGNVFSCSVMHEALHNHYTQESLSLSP
light: B1 light
B7: GpH7-B3 variant P238M/GpL16-k0 (antibody, human IgG1, kappa)
heavy: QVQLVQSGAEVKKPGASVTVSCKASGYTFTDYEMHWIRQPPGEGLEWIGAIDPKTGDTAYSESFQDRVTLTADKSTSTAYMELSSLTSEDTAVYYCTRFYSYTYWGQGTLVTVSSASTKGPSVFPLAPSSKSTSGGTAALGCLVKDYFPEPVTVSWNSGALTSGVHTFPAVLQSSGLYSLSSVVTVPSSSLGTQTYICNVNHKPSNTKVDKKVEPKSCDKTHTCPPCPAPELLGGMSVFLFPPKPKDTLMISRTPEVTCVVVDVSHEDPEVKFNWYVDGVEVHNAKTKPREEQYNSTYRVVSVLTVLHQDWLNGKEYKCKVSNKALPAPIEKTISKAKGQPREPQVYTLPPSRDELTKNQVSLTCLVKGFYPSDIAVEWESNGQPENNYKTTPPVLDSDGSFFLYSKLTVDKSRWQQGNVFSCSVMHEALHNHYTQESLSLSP
light: B1 light
B8: GpH7-B3 variant N325I/GpL16-k0 (antibody, human IgG1, kappa)
heavy: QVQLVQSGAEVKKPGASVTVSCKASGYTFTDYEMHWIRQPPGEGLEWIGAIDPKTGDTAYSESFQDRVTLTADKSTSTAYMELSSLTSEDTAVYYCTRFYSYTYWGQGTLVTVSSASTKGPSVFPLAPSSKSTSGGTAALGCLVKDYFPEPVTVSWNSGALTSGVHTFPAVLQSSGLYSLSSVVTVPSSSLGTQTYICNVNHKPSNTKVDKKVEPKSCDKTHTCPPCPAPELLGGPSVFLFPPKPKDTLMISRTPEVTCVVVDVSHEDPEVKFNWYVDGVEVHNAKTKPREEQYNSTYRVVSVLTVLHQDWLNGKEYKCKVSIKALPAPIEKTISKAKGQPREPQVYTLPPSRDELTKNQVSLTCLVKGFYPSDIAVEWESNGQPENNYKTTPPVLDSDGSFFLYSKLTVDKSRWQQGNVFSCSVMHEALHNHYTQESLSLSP
light: B1 light
B9: GpH7-B3 variant G237Y/GpL16-k0 (antibody, human IgG1, kappa)
heavy: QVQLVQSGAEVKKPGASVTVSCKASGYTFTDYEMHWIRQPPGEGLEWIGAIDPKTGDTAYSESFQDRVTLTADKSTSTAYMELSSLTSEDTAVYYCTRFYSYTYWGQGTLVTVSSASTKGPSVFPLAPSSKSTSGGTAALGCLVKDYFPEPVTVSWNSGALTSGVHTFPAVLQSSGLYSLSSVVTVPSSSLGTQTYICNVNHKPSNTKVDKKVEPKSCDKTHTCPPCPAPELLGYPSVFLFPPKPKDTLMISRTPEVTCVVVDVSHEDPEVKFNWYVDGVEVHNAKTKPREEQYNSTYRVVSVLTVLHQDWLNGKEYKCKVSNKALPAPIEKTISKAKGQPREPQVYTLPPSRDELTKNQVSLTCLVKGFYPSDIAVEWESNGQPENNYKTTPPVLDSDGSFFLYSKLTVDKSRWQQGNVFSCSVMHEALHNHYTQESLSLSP
light: B1 light
B10: M103205H795-MY449/M103202L889-SK1 (antibody, human IgG1, kappa)
heavy: QVTLKESGPVLVKPTETLTLTCTVSGIDLSHDDISWVRQAPGKGLEWVGIISYAGSTYYASWAKGRLTISKDTSKNQVVLTMTNMDPVDTATYYCARGVPAYSHGGDLWGQGTLVTVSSASTKGPSVFPLAPSSKSTSGGTAALGCLVKDYFPEPVTVSWNSGALTSGVHTFPAVLQSSGLYSLSSVVTVPSSSLGTQTYICNVNHKPSNTKVDKKVEPKSCDKTHTCPPCPALELLTGPSVFLFPPKPKDTLMISRTPEVTCVVVDVSDEDPEVKFNWYVDGVEVHNAKTKPREEQYNSTYRVVSVLTVLHQDWLNGKEYKCKVSNKALPKPIEKTISKAKGQPREPQVYTLPPSREEMTKNQVSLTCLVKGFYPSDIAVEWESNGQPENNYKTTPPVLDSDGSFFLYSKLTVDKSRWQQGNVFSCSVMHEALHNHYTQKSLSLSP
light: DIVMTQSPATLSLSPGERATLSCTSSQSVYHANWLSWFQQKPGQPPKLLIYWASTLAYGVPSRFSGSGSGTDFTLTISSLQPEDAATYYCAGGYGGGRYAFGQGTKVEIKRTVAAPSVFIFPPSDEQLKSGTASVVCLLNNFYPREAKVQWKVDNALQSGNSQESVTEQDSKDSTYSLSSTLTLSKADYEKHKVYACEVTHQGLSSPVTKSFNRGEC
notes: copies: 2 + 2
B11: M103205H795-MY451/M103202L889-SK1 (antibody, human IgG1, kappa)
heavy: B10 heavy with L234N
light: B10 light
notes: copies: 2 + 2
B12: M103205H795-MY450/M103202L889-SK1 (antibody, human IgG1, kappa)
heavy: B10 heavy with L234M
light: B10 light
notes: copies: 2 + 2

Target: T1, human FcγRIIaR extracellular domain, …
Assay: SPR 25C; FcgR bound per captured antibody, relative to parent B3
Method: (§1) These Fc variants are referred to as B3 variants. B3 variants were expressed and the binding of protein-A purified antibodies to each FcγR (FcγRIIa type H. FcγRIIa type R, FcγRIIb, and FcγRIIIaF) was comprehensively evaluated as follows. Analysis of interaction between each altered antibody and the Fcγ receptor prepared as mentioned above was carried out using BIACORE® T100 (GE Healthcare), BIACORE® T200 (GE Healthcare), BIACORE® A100, or BIACORE® 4000. HBS-EP+(GE Healthcare) was used as the running buffer, and the measurement temperature was set to 25° C. Chips produced by immobilizing Protein A (Thermo Scientific), Protein A/G (Thermo Scientific), or Protein L (ACTIGEN or BioVision) by the amine coupling method to a Series S sensor Chip CM5 or CM4 (GE Healthcare) were used. After capturing of antibodies of interest onto these sensor chips, an Fcγ receptor diluted with the running buffer was allowed to interact, the amount bound to an antibody was measured. However, since the amount of Fcγ receptor bound depends on the amount of the captured antibodies, the amount of Fcγ receptor bound was divided by the amount of each antibody captured to obtain corrected values, and these values were compared. Furthermore, antibodies captured onto the chips were washed by 10 mM glycine-HCl pH1.5, and the chips were regenerated and used repeatedly. […] The value obtained by multiplying this value by 100 was used as an indicator of the relative FcγR-binding activity of each variant.

Binding to human FcgRs (parent B3 = 100)	Binder
48 parent B3 = 100	B1
123 parent B3 = 100	B2
127 parent B3 = 100	B3
13 parent B3 = 100	B4
2 parent B3 = 100	B5
51 parent B3 = 100	B6

Target: T2, human FcγRIIaH extracellular domain, …
Assay: as above
Method: as §1

Binding to human FcgRs (parent B3 = 100)	Binder
95 parent B3 = 100	B1
116 parent B3 = 100	B2
86 parent B3 = 100	B7
76 parent B3 = 100	B8
121 parent B3 = 100	B3
93 parent B3 = 100	B4
21 parent B3 = 100	B5
90 parent B3 = 100	B6
77 parent B3 = 100	B9

Target: T3, human FcγRIIaR extracellular domain, …
Assay: SPR (BIACORE), captured antibody, FcgR as analyte
Method: (§2) The kinetic analysis of interactions between these antibodies and FcγR was carried out using BIACORE® T200 or BIACORE® 4000 (GE Healthcare). HBS-EP+ (GE Healthcare) was used as the running buffer, and the measurement temperature was set to 25° C. A chip produced by immobilizing Protein A. Protein A/G or mouse anti-human IgG kappa light chain (BD Biosciences) onto a Series S Sensor Chip CM4 or CM5 (GE Healthcare) by the amine-coupling method was used. […] After the measurement, the antibody captured on the chip was washed off by allowing reaction with 10 mM glycine-HCl, pH1.5 and 25 mM NaOH so that the chip was regenerated and used repeatedly. The sensorgrams obtained as measurement results were analyzed by the 1:1 Langmuir binding model using the BIACORE® Evaluation Software to calculate the binding rate constant ka (L/mol/s) and dissociation rate constant kd (l/s), and the dissociation constant KD (mol/L) was calculated from these values. […] Regarding such interactions, KD values were calculated using the following 1:1 binding model described in BIACORE® T100 Software Handbook BR1006-48 Edition AE.

Kd	Binder
0.074 µM	B10
0.84 µM	B11
0.12 µM	B12

Target: T4, cynomolgus monkey FcγRIIa2 …
Assay: SPR (BIACORE), captured antibody, FcgR as analyte
Method: as §2

Kd	Binder
0.94 µM	B10
4.2 µM	B11
1.1 µM	B12

Target: T5, human FcγRIIb extracellular domain, …
Assay: SPR (BIACORE), captured antibody, FcgR as analyte
Method: as §2

Kd	Binder
0.29 µM	B10
3 µM	B11
0.47 µM	B12

Target: T6, cynomolgus monkey FcγRIIIaS …
Assay: SPR (BIACORE), captured antibody, FcgR as analyte
Method: as §2

Kd	Binder
1 µM	B10
2.7 µM	B11
1.8 µM	B12

Target: T7, cynomolgus monkey FcγRIIb extracellular …
Assay: SPR (BIACORE), captured antibody, FcgR as analyte
Method: as §2

Kd	Binder
0.23 µM	B10
1 µM	B11
0.28 µM	B12

Target: T8, cynomolgus monkey FcγRIIa3 …
Assay: SPR (BIACORE), captured antibody, FcgR as analyte
Method: as §2

Kd	Binder
1.5 µM	B10
6.7 µM	B11
2.2 µM	B12

Target: T9, cynomolgus monkey FcγRIIa1 …
Assay: SPR (BIACORE), captured antibody, FcgR as analyte
Method: as §2

Kd	Binder
0.87 µM	B10
3.6 µM	B11
1.3 µM	B12

Target: T11, human FcγRIIIaV extracellular domain, His-tagged (human, UniProt P08637 17-208)
T11 construct: also called FcgRIIIaV; not shown: C-terminal His-tag
T11 sequence (P08637 17-208 F176V): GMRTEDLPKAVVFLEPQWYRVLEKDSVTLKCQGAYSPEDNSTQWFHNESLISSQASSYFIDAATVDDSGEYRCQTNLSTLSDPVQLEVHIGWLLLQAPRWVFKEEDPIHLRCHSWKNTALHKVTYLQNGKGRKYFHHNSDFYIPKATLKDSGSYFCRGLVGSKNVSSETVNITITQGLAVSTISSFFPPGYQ
Assay: SPR (BIACORE), captured antibody, FcgR as analyte
Method: as §2

Kd	Binder
3.7 µM	B10
7.1 µM	B11
4 µM	B12

Target: T10, human FcγRIIaH extracellular domain, …
Assay: SPR (BIACORE), captured antibody, FcgR as analyte
Method: as §2

Kd	Binder
0.093 µM	B10
0.41 µM	B11
0.13 µM	B12
